Measurements taken from IntAct's records for PubMed 29892012.

B1: Keratin, type I cuticular Ha8 (Homo sapiens), O76015 (parent)
chain: MTSSYSSSSCPLGCTMAPGARNVSVSPIDIGCQPGAEANIAPMCLLANVAHANRVRVGSTPLGRPSLCLPPTCHTACPLPGTCHIPGNIGICGAYGENTLNGHEKETMQFLNDRLANYLEKVRQLEQENAELEATLLERSKCHESTVCPDYQSYFHTIEELQQKILCSKAENARLIVQIDNAKLAADDFRIKLESERSLRQLVEADKCGTQKLLDDATLAKADLEAQQESLKEEQLSLKSNHEQEVKILRSQLGEKLRIELDIEPTIDLNRVLGEMRAQYEAMLETNRQDVEQWFQAQSEGISLQDMSCSEELQCCQSEILELRCTVNALEVERQAQHTLKDCLQNSLCEAEDRFGTELAQMQSLISNVEEQLSEIRADLERQNQEYQVLLDVKTRLENEIATYRNLLESEDCKLPCNPCSTSPSCVTAPCAPRPSCGPCTTCGPTCGASTTGSRF
partner: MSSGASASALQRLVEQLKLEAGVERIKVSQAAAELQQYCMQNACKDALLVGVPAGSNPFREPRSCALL
B2: Casein kinase II subunit alpha (Homo sapiens), P68400 (parent)
chain: MSGPVPSRARVYTDVNTHRPREYWDYESHVVEWGNQDDYQLVRKLGRGKYSEVFEAINITNNEKVVVKILKPVKKKKIKREIKILENLRGGPNIITLADIVKDPVSRTPALVFEHVNNTDFKQLYQTLTDYDIRFYMYEILKALDYCHSMGIMHRDVKPHNVMIDHEHRKLRLIDWGLAEFYHPGQEYNVRVASRYFKGPELLVDYQMYDYSLDMWSLGCMLASMIFRKEPFFHGHDNYDQLVRIAKVLGTEDLYDYIDKYNIELDPRFNDILGRHSRKRWERFVHSENQHLVSPEALDFLDKLLRYDHQSRLTAREAMEHPYFYTVVKDQARMGSSSMPGGSTPVSSANMMSGISSVPTPSPLGPLAGSPVIAAANPLGMPVPAAAGAQQ
partner: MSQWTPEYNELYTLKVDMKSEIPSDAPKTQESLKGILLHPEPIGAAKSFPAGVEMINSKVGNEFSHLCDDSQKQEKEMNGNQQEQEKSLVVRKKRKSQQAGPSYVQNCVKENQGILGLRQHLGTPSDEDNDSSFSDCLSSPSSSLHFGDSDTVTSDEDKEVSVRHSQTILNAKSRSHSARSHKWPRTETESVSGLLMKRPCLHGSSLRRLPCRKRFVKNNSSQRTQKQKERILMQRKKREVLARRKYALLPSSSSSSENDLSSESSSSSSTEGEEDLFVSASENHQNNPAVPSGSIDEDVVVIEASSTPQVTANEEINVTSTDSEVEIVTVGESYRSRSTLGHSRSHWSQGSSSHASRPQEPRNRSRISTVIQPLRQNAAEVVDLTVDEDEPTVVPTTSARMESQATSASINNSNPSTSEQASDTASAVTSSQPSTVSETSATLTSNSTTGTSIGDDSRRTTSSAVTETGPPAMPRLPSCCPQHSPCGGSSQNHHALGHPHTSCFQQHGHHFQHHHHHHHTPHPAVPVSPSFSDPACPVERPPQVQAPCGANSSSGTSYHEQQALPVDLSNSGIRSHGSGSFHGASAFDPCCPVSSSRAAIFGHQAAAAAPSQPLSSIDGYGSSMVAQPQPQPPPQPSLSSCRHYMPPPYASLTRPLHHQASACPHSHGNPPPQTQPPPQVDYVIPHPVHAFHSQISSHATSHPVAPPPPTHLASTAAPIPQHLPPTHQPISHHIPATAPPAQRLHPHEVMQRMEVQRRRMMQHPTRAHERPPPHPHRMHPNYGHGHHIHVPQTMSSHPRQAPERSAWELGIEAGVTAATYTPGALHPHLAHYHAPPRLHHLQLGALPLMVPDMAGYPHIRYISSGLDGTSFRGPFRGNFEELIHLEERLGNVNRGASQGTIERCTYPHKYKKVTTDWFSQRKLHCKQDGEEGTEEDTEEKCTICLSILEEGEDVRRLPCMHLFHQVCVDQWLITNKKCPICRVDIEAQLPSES
B3: Vacuolar protein-sorting-associated protein 25 (Homo sapiens), Q9BRG1 (parent)
chain: MAMSFEWPWQYRFPPFFTLQPNVDTRQKQLAAWCSLVLSFCRLHKQSSMTVMEAQESPLFNNVKLQRKLPVESIQIVLEELRKKGNLEWLDKSKSSFLIMWRRPEEWGKLIYQWVSRSGQNNSVFTLYELTNGEDTEDEEFHGLDEATLLRALQALQQEHKAEIITVSDGRGVKFF
partner: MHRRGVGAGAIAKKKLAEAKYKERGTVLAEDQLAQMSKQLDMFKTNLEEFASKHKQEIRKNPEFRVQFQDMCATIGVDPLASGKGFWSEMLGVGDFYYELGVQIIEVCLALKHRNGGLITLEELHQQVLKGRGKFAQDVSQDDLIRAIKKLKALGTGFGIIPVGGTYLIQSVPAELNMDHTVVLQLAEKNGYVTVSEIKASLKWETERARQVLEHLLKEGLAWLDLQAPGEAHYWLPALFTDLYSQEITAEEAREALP
B4: Forkhead box protein S1 (Homo sapiens), O43638 (parent)
chain: MQQQPLPGPGAPTTEPTKPPYSYIALIAMAIQSSPGQRATLSGIYRYIMGRFAFYRHNRPGWQNSIRHNLSLNECFVKVPRDDRKPGKGSYWTLDPDCHDMFEHGSFLRRRRRFTRQTGAEGTRGPAKARRGPLRATSQDPGVPNATTGRQCSFPPELPDPKGLSFGGLVGAMPASMCPATTDGRPRPPMEPKEISTPKPACPGELPVATSSSSCPAFGFPAGFSEAESFNKAPTPVLSPESGIGSSYQCRLQALNFCMGADPGLEHLLASAAPSPAPPTPPGSLRAPLPLPTDHKEPWVAGGFPVQGGSGYPLGLTPCLYRTPGMFFFE
B5: Cyclic AMP-dependent transcription factor ATF-4 (Homo sapiens), P18848 (parent)
chain: MTEMSFLSSEVLVGDLMSPFDQSGLGAEESLGLLDDYLEVAKHFKPHGFSSDKAKAGSSEWLAVDGLVSPSNNSKEDAFSGTDWMLEKMDLKEFDLDALLGIDDLETMPDDLLTTLDDTCDLFAPLVQETNKQPPQTVNPIGHLPESLTKPDQVAPFTFLQPLPLSPGVLSSTPDHSFSLELGSEVDITEGDRKPDYTAYVAMIPQCIKEEDTPSDNDSGICMSPESYLGSPQHSPSTRGSPNRSLPSPGVLCGSARPKPYDPPGEKMVAAKVKGEKLDKKLKKMEQNKTAATRYRQKKRAEQEALTGECKELEKKNEALKERADSLAKEIQYLKDLIEEVRKARGKKRVP
B6: Keratin, type I cuticular Ha8 (Homo sapiens), O76015 (parent)
chain: B1 chain

Variants of: B1
Conditions: with gbg10_human GNG10, P50151

Row | Variant | effect of a mutation on the interaction
1 | D306A | with no effect

Variants of: B2
Conditions: with rn111_human RNF111, Q6ZNA4

Row | Variant | effect of a mutation on the interaction
2 | K198R | with no effect

Variants of: B3
Conditions: with snf8_human SNF8, Q96H20

Row | Variant | effect of a mutation on the interaction
3 | P58Q | with no effect

Variants of: B4
Conditions: with rbpms_human RBPMS

Row | Variant | effect of a mutation on the interaction
4 | T147M | with no effect

Variants of: B5
Conditions: with cc106_human CCDC106, Q9BWC9
Chain of cc106_human CCDC106, Q9BWC9 (Q9BWC9 whole entry): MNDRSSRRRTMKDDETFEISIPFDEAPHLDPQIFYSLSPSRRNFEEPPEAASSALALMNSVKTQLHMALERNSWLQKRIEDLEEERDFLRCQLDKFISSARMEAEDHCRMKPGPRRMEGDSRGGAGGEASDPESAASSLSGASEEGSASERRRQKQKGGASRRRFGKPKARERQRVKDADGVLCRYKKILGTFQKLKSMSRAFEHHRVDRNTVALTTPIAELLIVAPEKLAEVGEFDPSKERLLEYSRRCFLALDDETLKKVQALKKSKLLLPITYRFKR

Row | Variant | effect of a mutation on the interaction
5 | L180F | with no effect

Variants of: B5
Conditions: with ldoc1_human LDOC1, O95751
Chain of ldoc1_human LDOC1, O95751 (O95751 whole entry): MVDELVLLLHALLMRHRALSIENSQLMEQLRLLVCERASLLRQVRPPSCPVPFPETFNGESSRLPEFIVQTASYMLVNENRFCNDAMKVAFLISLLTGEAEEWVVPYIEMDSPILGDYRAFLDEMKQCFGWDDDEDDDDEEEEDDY

Row | Variant | effect of a mutation on the interaction
6 | L180F | with no effect

Variants of: B5
Conditions: with gps2_human GPS2, Q13227
Chain of gps2_human GPS2, Q13227 (Q13227 whole entry): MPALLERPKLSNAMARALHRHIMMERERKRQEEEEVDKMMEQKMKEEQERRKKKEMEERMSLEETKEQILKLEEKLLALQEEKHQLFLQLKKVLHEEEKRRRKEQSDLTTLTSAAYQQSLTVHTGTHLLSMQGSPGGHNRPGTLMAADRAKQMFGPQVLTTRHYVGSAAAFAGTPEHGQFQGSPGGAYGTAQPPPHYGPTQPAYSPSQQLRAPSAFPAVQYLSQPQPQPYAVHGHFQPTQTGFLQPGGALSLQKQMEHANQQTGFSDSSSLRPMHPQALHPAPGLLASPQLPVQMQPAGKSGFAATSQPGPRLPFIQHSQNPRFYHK

Row | Variant | effect of a mutation on the interaction
7 | L180F | with no effect

Variants of: B5
Conditions: with tthy_human TTR

Row | Variant | effect of a mutation on the interaction
8 | L180F | with no effect

Variants of: B5
Conditions: with fbw1a_human BTRC

Row | Variant | effect of a mutation on the interaction
9 | L180F | with no effect

Variants of: B6
Conditions: with k22e_human KRT2, P35908
Chain of k22e_human KRT2, P35908 (P35908 whole entry): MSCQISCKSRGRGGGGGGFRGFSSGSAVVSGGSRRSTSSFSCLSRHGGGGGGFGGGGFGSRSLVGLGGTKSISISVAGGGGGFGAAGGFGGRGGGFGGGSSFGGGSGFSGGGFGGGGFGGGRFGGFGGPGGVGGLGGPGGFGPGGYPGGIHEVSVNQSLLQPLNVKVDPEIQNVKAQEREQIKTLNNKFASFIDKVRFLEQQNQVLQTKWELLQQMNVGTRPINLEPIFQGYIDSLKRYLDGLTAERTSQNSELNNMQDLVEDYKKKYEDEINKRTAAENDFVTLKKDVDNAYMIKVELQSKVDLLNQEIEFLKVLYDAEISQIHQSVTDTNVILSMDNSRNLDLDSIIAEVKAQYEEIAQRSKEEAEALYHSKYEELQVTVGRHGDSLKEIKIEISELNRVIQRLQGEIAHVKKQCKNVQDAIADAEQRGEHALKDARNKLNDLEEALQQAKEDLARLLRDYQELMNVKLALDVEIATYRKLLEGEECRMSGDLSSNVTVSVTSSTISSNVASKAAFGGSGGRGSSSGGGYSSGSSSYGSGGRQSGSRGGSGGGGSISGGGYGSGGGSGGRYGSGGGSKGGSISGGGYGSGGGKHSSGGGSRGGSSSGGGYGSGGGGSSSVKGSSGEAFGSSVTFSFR

Row | Variant | effect of a mutation on the interaction
10 | N270K | with no effect

Variants of: B6
Conditions: with txnd5_human TXNDC5, Q8NBS9
Chain of txnd5_human TXNDC5, Q8NBS9 (Q8NBS9 whole entry): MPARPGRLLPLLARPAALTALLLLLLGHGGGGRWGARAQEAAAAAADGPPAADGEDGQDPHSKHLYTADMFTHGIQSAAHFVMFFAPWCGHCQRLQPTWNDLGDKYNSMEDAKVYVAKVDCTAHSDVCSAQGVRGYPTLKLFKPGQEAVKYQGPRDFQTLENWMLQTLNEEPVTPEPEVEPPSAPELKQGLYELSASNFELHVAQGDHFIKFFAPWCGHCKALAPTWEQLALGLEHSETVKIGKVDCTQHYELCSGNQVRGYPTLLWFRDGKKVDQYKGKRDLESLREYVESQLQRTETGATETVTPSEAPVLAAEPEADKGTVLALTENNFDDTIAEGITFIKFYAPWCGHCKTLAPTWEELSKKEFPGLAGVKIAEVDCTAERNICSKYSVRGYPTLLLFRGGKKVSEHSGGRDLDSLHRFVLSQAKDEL

Row | Variant | effect of a mutation on the interaction
11 | N270K | with no effect

Variants of: B6
Conditions: with prs8_human PSMC5, P62195
Chain of prs8_human PSMC5, P62195 (P62195 whole entry): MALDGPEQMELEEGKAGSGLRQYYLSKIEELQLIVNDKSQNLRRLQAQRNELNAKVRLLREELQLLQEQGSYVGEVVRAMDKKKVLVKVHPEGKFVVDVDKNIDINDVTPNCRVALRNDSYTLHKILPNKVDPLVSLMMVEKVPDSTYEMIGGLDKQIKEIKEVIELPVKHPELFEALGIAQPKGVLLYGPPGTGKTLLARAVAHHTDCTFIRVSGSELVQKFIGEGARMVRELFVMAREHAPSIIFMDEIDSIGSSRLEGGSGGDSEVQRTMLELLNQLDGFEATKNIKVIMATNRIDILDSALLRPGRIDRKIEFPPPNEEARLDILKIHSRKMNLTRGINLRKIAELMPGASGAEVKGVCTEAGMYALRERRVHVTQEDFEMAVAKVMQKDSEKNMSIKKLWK

Row | Variant | effect of a mutation on the interaction
12 | N270K | with no effect

Variants of: B6
Conditions: with p85b_human PIK3R2, O00459
Chain of p85b_human PIK3R2, O00459 (O00459 whole entry): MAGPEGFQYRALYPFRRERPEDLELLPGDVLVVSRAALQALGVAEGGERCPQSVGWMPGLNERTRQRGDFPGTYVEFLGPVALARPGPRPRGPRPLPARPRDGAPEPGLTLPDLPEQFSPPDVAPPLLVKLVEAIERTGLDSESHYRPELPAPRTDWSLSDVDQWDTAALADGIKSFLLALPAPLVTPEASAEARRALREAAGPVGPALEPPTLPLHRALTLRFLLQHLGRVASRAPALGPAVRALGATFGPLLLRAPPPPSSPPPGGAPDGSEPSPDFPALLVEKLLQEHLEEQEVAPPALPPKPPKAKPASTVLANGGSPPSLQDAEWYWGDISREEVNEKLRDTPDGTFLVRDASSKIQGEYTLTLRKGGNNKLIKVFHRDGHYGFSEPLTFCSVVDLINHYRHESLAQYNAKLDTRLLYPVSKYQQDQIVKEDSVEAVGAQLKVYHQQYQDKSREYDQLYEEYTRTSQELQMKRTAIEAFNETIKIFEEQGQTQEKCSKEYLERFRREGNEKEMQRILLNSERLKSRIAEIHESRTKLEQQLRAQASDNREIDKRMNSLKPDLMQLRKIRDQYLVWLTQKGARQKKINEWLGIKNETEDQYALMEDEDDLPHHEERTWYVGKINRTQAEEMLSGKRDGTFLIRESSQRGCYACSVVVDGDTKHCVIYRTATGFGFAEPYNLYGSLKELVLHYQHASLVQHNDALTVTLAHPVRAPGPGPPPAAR

Row | Variant | effect of a mutation on the interaction
13 | N270K | with no effect

Variants of: B6
Conditions: with KRT6A

Row | Variant | effect of a mutation on the interaction
14 | N270K | with no effect

Variants of: B6
Conditions: with k2c4_human KRT4, P19013
Chain of k2c4_human KRT4, P19013 (P19013 whole entry): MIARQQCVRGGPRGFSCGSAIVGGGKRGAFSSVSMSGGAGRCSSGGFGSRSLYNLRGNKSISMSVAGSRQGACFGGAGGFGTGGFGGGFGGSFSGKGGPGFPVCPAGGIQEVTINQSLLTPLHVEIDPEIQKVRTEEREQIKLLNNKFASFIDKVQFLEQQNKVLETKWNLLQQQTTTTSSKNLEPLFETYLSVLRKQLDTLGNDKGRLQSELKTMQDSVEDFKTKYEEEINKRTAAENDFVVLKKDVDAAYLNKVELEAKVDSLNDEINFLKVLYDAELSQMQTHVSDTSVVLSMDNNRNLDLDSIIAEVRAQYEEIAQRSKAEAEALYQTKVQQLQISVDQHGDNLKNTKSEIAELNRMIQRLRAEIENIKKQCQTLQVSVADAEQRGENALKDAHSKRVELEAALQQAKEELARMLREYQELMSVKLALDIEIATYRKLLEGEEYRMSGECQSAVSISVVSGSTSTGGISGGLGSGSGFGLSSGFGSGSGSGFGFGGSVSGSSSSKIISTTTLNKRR

Row | Variant | effect of a mutation on the interaction
15 | N270K | with no effect

Variants of: B6
Conditions: with txlnb_human TXLNB

Row | Variant | effect of a mutation on the interaction
16 | N270K | with no effect

Variants of: B6
Conditions: with KRT79, Q5XKE5
Chain of KRT79, Q5XKE5 (Q5XKE5 whole entry): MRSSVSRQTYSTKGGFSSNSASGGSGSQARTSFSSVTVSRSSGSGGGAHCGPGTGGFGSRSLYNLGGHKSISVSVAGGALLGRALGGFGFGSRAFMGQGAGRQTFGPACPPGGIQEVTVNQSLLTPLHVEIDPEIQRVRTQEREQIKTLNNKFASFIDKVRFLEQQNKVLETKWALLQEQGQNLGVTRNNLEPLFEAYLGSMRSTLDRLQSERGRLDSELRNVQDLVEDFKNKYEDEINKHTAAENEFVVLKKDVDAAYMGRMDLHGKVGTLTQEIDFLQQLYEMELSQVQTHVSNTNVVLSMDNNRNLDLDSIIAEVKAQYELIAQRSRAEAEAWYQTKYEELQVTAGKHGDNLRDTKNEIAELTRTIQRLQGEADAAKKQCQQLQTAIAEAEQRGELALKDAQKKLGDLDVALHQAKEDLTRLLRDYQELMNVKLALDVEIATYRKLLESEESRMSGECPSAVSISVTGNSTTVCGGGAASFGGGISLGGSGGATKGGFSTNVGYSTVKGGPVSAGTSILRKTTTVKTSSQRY

Row | Variant | effect of a mutation on the interaction
17 | N270K | with no effect

Variants of: B6
Conditions: with txlna_human TXLNA

Row | Variant | effect of a mutation on the interaction
18 | N270K | with no effect
